According to paper doi:10.1101/634907:

Legend:
[1] = biological target: recombinant human CLASP2 C-terminal fragment (CLASP2-1213-1515) (human); experiment: SEC + other: density gradient centrifugation
[2] = biological target: T1, CLASP2 (endogenous, HeLa cell extracts) (human (endogenous in HeLa)), O75122; experiment: SEC + other: density gradient centrifugation; conditions: remark: other sources report otherwise
T1 chain: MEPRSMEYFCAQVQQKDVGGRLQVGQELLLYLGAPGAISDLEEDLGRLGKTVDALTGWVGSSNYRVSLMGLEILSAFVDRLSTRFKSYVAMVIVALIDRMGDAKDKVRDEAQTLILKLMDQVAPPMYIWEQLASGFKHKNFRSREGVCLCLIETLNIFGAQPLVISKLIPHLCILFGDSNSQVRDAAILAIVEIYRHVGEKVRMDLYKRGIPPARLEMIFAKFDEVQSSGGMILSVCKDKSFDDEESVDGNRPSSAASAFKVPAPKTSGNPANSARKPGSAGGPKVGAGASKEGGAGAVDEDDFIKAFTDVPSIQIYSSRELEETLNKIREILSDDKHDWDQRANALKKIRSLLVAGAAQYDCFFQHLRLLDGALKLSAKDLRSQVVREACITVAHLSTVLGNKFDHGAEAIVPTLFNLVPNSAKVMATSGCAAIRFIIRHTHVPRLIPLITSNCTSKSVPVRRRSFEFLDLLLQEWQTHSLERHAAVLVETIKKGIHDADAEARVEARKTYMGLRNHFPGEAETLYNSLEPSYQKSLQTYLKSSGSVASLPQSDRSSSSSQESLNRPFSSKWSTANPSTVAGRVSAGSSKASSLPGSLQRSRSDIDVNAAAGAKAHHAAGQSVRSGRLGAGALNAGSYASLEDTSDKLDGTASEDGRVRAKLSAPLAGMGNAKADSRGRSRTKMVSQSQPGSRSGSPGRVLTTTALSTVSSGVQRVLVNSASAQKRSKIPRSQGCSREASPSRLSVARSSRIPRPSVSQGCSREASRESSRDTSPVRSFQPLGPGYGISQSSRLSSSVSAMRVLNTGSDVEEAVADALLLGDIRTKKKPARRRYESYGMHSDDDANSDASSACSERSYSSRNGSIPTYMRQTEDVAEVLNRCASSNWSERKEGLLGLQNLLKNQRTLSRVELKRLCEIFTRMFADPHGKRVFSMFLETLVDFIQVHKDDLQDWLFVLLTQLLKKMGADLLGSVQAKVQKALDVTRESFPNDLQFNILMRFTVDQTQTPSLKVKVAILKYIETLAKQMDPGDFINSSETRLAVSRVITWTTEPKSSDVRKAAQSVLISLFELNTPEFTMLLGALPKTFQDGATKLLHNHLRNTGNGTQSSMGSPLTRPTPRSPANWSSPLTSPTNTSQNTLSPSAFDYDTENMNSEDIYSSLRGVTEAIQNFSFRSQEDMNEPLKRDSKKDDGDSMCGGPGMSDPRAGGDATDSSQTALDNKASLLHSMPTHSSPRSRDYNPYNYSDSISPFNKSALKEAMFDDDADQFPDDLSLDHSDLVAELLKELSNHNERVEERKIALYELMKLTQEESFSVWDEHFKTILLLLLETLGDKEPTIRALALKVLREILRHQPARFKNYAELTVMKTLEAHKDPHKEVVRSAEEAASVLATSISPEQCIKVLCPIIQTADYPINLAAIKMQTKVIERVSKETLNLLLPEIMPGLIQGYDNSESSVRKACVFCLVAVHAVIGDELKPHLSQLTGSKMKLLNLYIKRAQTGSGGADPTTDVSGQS

In the case of “recombinant human CLASP2 C-terminal fragment (CLASP2-1213-1515) (domain or fragment)”, the stoichiometry N [1] is reported as 2.

B1: CLASP2 (endogenous, HeLa cell extracts), O75122-3 1-1515 (natural protein)
chain: MEPRSMEYFCAQVQQKDVGGRLQVGQELLLYLGAPGAISDLEEDLGRLGKTVDALTGWVGSSNYRVSLMGLEILSAFVDRLSTRFKSYVAMVIVALIDRMGDAKDKVRDEAQTLILKLMDQVAPPMYIWEQLASGFKHKNFRSREGVCLCLIETLNIFGAQPLVISKLIPHLCILFGDSNSQVRDAAILAIVEIYRHVGEKVRMDLYKRGIPPARLEMIFAKFDEVQSSGGMILSVCKDKSFDDEESVDGNRPSSAASAFKVPAPKTSGNPANSARKPGSAGGPKVGAGASKEGGAGAVDEDDFIKAFTDVPSIQIYSSRELEETLNKIREILSDDKHDWDQRANALKKIRSLLVAGAAQYDCFFQHLRLLDGALKLSAKDLRSQVVREACITVAHLSTVLGNKFDHGAEAIVPTLFNLVPNSAKVMATSGCAAIRFIIRHTHVPRLIPLITSNCTSKSVPVRRRSFEFLDLLLQEWQTHSLERHAAVLVETIKKGIHDADAEARVEARKTYMGLRNHFPGEAETLYNSLEPSYQKSLQTYLKSSGSVASLPQSDRSSSSSQESLNRPFSSKWSTANPSTVAGRVSAGSSKASSLPGSLQRSRSDIDVNAAAGAKAHHAAGQSVRSGRLGAGALNAGSYASLEDTSDKLDGTASEDGRVRAKLSAPLAGMGNAKADSRGRSRTKMVSQSQPGSRSGSPGRVLTTTALSTVSSGVQRVLVNSASAQKRSKIPRSQGCSREASPSRLSVARSSRIPRPSVSQGCSREASRESSRDTSPVRSFQPLGPGYGISQSSRLSSSVSAMRVLNTGSDVEEAVADALLLGDIRTKKKPARRRYESYGMHSDDDANSDASSACSERSYSSRNGSIPTYMRQTEDVAEVLNRCASSNWSERKEGLLGLQNLLKNQRTLSRVELKRLCEIFTRMFADPHGKRVFSMFLETLVDFIQVHKDDLQDWLFVLLTQLLKKMGADLLGSVQAKVQKALDVTRESFPNDLQFNILMRFTVDQTQTPSLKVKVAILKYIETLAKQMDPGDFINSSETRLAVSRVITWTTEPKSSDVRKAAQSVLISLFELNTPEFTMLLGALPKTFQDGATKLLHNHLRNTGNGTQSSMGSPLTRPTPRSPANWSSPLTSPTNTSQNTLSPSAFDYDTENMNSEDIYSSLRGVTEAIQNFSFRSQEDMNEPLKRDSKKDDGDSMCGGPGMSDPRAGGDATDSSQTALDNKASLLHSMPTHSSPRSRDYNPYNYSDSISPFNKSALKEAMFDDDADQFPDDLSLDHSDLVAELLKELSNHNERVEERKIALYELMKLTQEESFSVWDEHFKTILLLLLETLGDKEPTIRALALKVLREILRHQPARFKNYAELTVMKTLEAHKDPHKEVVRSAEEAASVLATSISPEQCIKVLCPIIQTADYPINLAAIKMQTKVIERVSKETLNLLLPEIMPGLIQGYDNSESSVRKACVFCLVAVHAVIGDELKPHLSQLTGSKMKLLNLYIKRAQTGSGGADPTTDVSGQS
B1 showed a stoichiometry N [2] of 2.
